One experiment deals with T1, HGF-His tag (UniProt P14210 32-728).
T1 construct: Bought antigen coated on the ELISA plate; not shown: His tag
Nature of the experiment: direct bind ELISA (C-term VD). On the technique in general: In an ELISA, binding on a coated surface is turned into a signal by an enzyme label.

The next experiment addresses T2, VEGF 1-165 aa (UniProt P15692 27-191).
T2 construct: Bought antigen coated on the ELISA plate
Nature of the experiment: direct bind ELISA (N-term VD).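 Note: ELISA screen of antibodies for binding to plate-immobilized target antigen.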

This passage reports EC50 results from patent US20100260668A1 (published 2010).

Usually EC50 stands for the concentration giving half of the maximal effect. High values mean a less potent agent, low ones a more potent agent.

T2 sequence (P15692 other isoform, or with tags, fused parts or gaps limits assumed): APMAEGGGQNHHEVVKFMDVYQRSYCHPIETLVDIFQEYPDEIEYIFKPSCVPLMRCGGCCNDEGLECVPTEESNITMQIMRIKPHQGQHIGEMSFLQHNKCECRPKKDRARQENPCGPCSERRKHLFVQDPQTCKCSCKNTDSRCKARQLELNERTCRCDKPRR
T1 sequence (P14210 32-728 limits assumed): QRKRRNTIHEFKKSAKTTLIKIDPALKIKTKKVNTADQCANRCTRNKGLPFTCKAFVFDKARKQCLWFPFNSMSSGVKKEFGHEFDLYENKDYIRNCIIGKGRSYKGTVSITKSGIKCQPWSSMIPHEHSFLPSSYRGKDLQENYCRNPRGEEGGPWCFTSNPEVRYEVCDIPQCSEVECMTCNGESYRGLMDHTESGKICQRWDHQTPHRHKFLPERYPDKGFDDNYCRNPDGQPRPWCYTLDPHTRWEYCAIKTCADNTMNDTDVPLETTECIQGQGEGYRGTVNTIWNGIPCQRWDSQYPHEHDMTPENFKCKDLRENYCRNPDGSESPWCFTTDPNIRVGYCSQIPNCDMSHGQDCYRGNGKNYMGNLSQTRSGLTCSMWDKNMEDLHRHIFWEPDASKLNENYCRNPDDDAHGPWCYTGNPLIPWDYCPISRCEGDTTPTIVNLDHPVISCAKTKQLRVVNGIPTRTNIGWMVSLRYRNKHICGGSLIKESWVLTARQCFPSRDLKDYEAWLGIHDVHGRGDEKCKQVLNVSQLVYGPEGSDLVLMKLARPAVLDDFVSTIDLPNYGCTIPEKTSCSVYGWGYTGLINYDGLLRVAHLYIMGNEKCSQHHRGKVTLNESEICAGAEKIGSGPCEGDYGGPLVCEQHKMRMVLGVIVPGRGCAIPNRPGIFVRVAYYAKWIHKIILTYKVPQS
Method for HGF-His tag: Enzyme Linked Immunosorbent Assays to screen for antibodies that bind a desired target antigen were performed as follows. […] Plates were washed four times with PBS containing 0.02% Tween 20. Plates were blocked by the addition of 300 μL/well blocking solution (non-fat dry milk powder, various retail suppliers, diluted to 2% in PBS) for ½ hour at room temperature. Plates were washed four times after blocking with PBS containing 0.02% Tween 20.
Alternatively, one hundred microliters per well of 10 μg/ml of Histidine (His) tagged desired target antigen (R&D Systems, Minneapolis, Minn.) was added to ELISA plates coated with monoclonal mouse anti-polyHistidine antibody as described above and incubated for 1 hour at room temperature. Wells were washed four times with PBS containing 0.02% Tween 20.
Plates were washed 4 times with PBS containing 0.02% Tween 20.

B1: DVD670 (bispecific antibody, human IgG1, kappa)
heavy: not shown
light: DIQMTQSPSSLSASVGDRVTITCRASQVIRRSLAWYQQKPGKAPKLLIYAASNLASGVPSRFSGSGSGTDFTLTISSLQPEDFATYYCQQSNTSPLTFGQGTKVEIKRTVAAPSVFIFPPDIQMTQSPSSLSASVGDRVTITCKASENVVSYVSWYQQKPGKAPKLLIYGASNRNTGVPSRFSGSGSGTDFTLTISSLQPEDFATYYCGQSYNYPYTFGQGTKLEIKRTVAAPSVFIFPPSDEQLKSGTASVVCLLNNFYPREAKVQWKVDNALQSGNSQESVTEQDSKDSTYSLSSTLTLSKADYEKHKVYACEVTHQGLSSPVTKSFNRGEC
notes: DVD-Ig; N-term VD AB071 (VEGF), C-term VD AB079 (HGF); HC linker long, LC linker long; vectors V1/V2
For B1, the EC50 in the experiment with HGF-His tag came out at 3.1 nM; with VEGF 1-165 aa, 48.3 nM.

B2: DVD660 (bispecific antibody, human IgG1, kappa)
heavy: not shown
light: DIQMTQSPSSLSASVGDRVTITCSASQDISNYLNWYQQKPGKAPKVLIYFTSSLHSGVPSRFSGSGSGTDFTLTISSLQPEDFATYYCQQYSTVPWTFGQGTKVEIKRTVAAPDIQMTQSPSSLSASVGDRVTITCKASENVVSYVSWYQQKPGKAPKLLIYGASNRNTGVPSRFSGSGSGTDFTLTISSLQPEDFATYYCGQSYNYPYTFGQGTKLEIKRTVAAPSVFIFPPSDEQLKSGTASVVCLLNNFYPREAKVQWKVDNALQSGNSQESVTEQDSKDSTYSLSSTLTLSKADYEKHKVYACEVTHQGLSSPVTKSFNRGEC
notes: DVD-Ig; HC linker short, LC linker short; vectors V1/V2
B2: the values for the EC50 in the experiment with HGF-His tag and with VEGF 1-165 aa were 449 nM and 1.51 nM, respectively.

B3: DVD672 (bispecific antibody, human IgG1, kappa)
heavy: not shown
light: B2 light
notes: DVD-Ig; HC linker long, LC linker short; vectors V1/V2
Take B3: the results for the EC50 with HGF-His tag and in the experiment with VEGF 1-165 aa were 22.9 nM and 16.1 nM, respectively.

B4: DVD654 (bispecific antibody, human IgG1, kappa)
heavy: not shown
light: DIQMTQSPSSLSASVGDRVTITCSASQDISNYLNWYQQKPGKAPKVLIYFTSSLHSGVPSRFSGSGSGTDFTLTISSLQPEDFATYYCQQYSTVPWTFGQGTKVEIKRTVAAPSVFIFPPDIQMTQSPSSVSASVGDRVTITCRASQGISSWLAWYQQKPGKAPNLLIYEASSLQSGVPSRFGGSGSGTDFTLTISSLQPEDFATYYCQQANGFPWTFGQGTKVEIKRTVAAPSVFIFPPSDEQLKSGTASVVCLLNNFYPREAKVQWKVDNALQSGNSQESVTEQDSKDSTYSLSSTLTLSKADYEKHKVYACEVTHQGLSSPVTKSFNRGEC
notes: DVD-Ig; HC linker short, LC linker long; vectors V1/V2
With B4, the EC50 with HGF-His tag is 0.91 nM; with VEGF 1-165 aa, 3.71 nM.

B5: DVD666 (bispecific antibody, human IgG1, kappa)
heavy: not shown
light: DIQMTQSPSSLSASVGDRVTITCSASQDISNYLNWYQQKPGKAPKVLIYFTSSLHSGVPSRFSGSGSGTDFTLTISSLQPEDFATYYCQQYSTVPWTFGQGTKVEIKRTVAAPSVFIFPPDIQMTQSPSSLSASVGDRVTITCKASENVVSYVSWYQQKPGKAPKLLIYGASNRNTGVPSRFSGSGSGTDFTLTISSLQPEDFATYYCGQSYNYPYTFGQGTKLEIKRTVAAPSVFIFPPSDEQLKSGTASVVCLLNNFYPREAKVQWKVDNALQSGNSQESVTEQDSKDSTYSLSSTLTLSKADYEKHKVYACEVTHQGLSSPVTKSFNRGEC
notes: DVD-Ig; HC linker long, LC linker long; vectors V1/V2
For B5, the EC50 in the experiment with HGF-His tag came to 14.7 nM; with VEGF 1-165 aa, 134 nM.

B6: DVD678 (bispecific antibody, human IgG1, kappa)
heavy: not shown
light: B5 light
notes: as for B4
As for B6, the results for the EC50 with HGF-His tag and with VEGF 1-165 aa were 4.69 nM and 0.65 nM, respectively.

B7: DVD668 (bispecific antibody, human IgG1, kappa)
heavy: not shown
light: DIQMTQSPSSLSASVGDRVTITCRASQDVSTAVAWYQQKPGKAPKLLIYSASFLYSGVPSRFSGSGSGTDFTLTISSLQPEDFATYYCQQSYTTPPTFGQGTKVEIKRTVAAPSVFIFPPDIQMTQSPSSLSASVGDRVTITCKASENVVSYVSWYQQKPGKAPKLLIYGASNRNTGVPSRFSGSGSGTDFTLTISSLQPEDFATYYCGQSYNYPYTFGQGTKLEIKRTVAAPSVFIFPPSDEQLKSGTASVVCLLNNFYPREAKVQWKVDNALQSGNSQESVTEQDSKDSTYSLSSTLTLSKADYEKHKVYACEVTHQGLSSPVTKSFNRGEC
notes: as for B5
In the case of B7, the EC50 worked out at 20.2 nM in the experiment with HGF-His tag and 136 nM with VEGF 1-165 aa.

B8: DVD650 (bispecific antibody, human IgG1, kappa)
heavy: not shown
light: DIQMTQSPSSLSASVGDRVTITCRASQDVSTAVAWYQQKPGKAPKLLIYSASFLYSGVPSRFSGSGSGTDFTLTISSLQPEDFATYYCQQSYTTPPTFGQGTKVEIKRTVAAPDIQMTQSPSSVSASVGDRVTITCRASQGISSWLAWYQQKPGKAPNLLIYEASSLQSGVPSRFGGSGSGTDFTLTISSLQPEDFATYYCQQANGFPWTFGQGTKVEIKRTVAAPSVFIFPPSDEQLKSGTASVVCLLNNFYPREAKVQWKVDNALQSGNSQESVTEQDSKDSTYSLSSTLTLSKADYEKHKVYACEVTHQGLSSPVTKSFNRGEC
notes: as for B3
Turning to B8, the EC50 came to 4.63 nM with HGF-His tag and 2.67 nM with VEGF 1-165 aa.

B9: DVD664 (bispecific antibody, human IgG1, kappa)
heavy: not shown
light: DIQMTQSPSSLSASVGDRVTITCRASQVIRRSLAWYQQKPGKAPKLLIYAASNLASGVPSRFSGSGSGTDFTLTISSLQPEDFATYYCQQSNTSPLTFGQGTKVEIKRTVAAPDIQMTQSPSSLSASVGDRVTITCKASENVVSYVSWYQQKPGKAPKLLIYGASNRNTGVPSRFSGSGSGTDFTLTISSLQPEDFATYYCGQSYNYPYTFGQGTKLEIKRTVAAPSVFIFPPSDEQLKSGTASVVCLLNNFYPREAKVQWKVDNALQSGNSQESVTEQDSKDSTYSLSSTLTLSKADYEKHKVYACEVTHQGLSSPVTKSFNRGEC
notes: DVD-Ig; N-term VD AB071 (VEGF), C-term VD AB079 (HGF); HC linker short, LC linker short; vectors V1/V2
With B9, the EC50 in the experiment with HGF-His tag came to 80.9 nM; with VEGF 1-165 aa it was 40.9 nM.

B10: DVD676 (bispecific antibody, human IgG1, kappa)
heavy: not shown
light: B9 light
notes: DVD-Ig; N-term VD AB071 (VEGF), C-term VD AB079 (HGF); HC linker long, LC linker short; vectors V1/V2
Turning to B10, the EC50 came to 35.8 nM with HGF-His tag and 130 nM with VEGF 1-165 aa.

B11: DVD658 (bispecific antibody, human IgG1, kappa)
heavy: not shown
light: DIQMTQSPSSLSASVGDRVTITCRASQVIRRSLAWYQQKPGKAPKLLIYAASNLASGVPSRFSGSGSGTDFTLTISSLQPEDFATYYCQQSNTSPLTFGQGTKVEIKRTVAAPSVFIFPPDIQMTQSPSSVSASVGDRVTITCRASQGISSWLAWYQQKPGKAPNLLIYEASSLQSGVPSRFGGSGSGTDFTLTISSLQPEDFATYYCQQANGFPWTFGQGTKVEIKRTVAAPSVFIFPPSDEQLKSGTASVVCLLNNFYPREAKVQWKVDNALQSGNSQESVTEQDSKDSTYSLSSTLTLSKADYEKHKVYACEVTHQGLSSPVTKSFNRGEC
notes: DVD-Ig; N-term VD AB071 (VEGF), C-term VD AB012 (HGF); HC linker short, LC linker long; vectors V1/V2
For the molecule B11, the EC50 was found to be 0.94 nM with HGF-His tag and 28.7 nM in the experiment with VEGF 1-165 aa.

B12: DVD656 (bispecific antibody, human IgG1, kappa)
heavy: not shown
light: DIQMTQSPSSLSASVGDRVTITCRASQDVSTAVAWYQQKPGKAPKLLIYSASFLYSGVPSRFSGSGSGTDFTLTISSLQPEDFATYYCQQSYTTPPTFGQGTKVEIKRTVAAPSVFIFPPDIQMTQSPSSVSASVGDRVTITCRASQGISSWLAWYQQKPGKAPNLLIYEASSLQSGVPSRFGGSGSGTDFTLTISSLQPEDFATYYCQQANGFPWTFGQGTKVEIKRTVAAPSVFIFPPSDEQLKSGTASVVCLLNNFYPREAKVQWKVDNALQSGNSQESVTEQDSKDSTYSLSSTLTLSKADYEKHKVYACEVTHQGLSSPVTKSFNRGEC
notes: as for B4
With B12, the concentration giving a half-maximal response (EC50) with HGF-His tag turned out to be 1.27 nM; in the experiment with VEGF 1-165 aa, 7.87 nM.

B13: DVD652 (bispecific antibody, human IgG1, kappa)
heavy: not shown
light: DIQMTQSPSSLSASVGDRVTITCRASQVIRRSLAWYQQKPGKAPKLLIYAASNLASGVPSRFSGSGSGTDFTLTISSLQPEDFATYYCQQSNTSPLTFGQGTKVEIKRTVAAPDIQMTQSPSSVSASVGDRVTITCRASQGISSWLAWYQQKPGKAPNLLIYEASSLQSGVPSRFGGSGSGTDFTLTISSLQPEDFATYYCQQANGFPWTFGQGTKVEIKRTVAAPSVFIFPPSDEQLKSGTASVVCLLNNFYPREAKVQWKVDNALQSGNSQESVTEQDSKDSTYSLSSTLTLSKADYEKHKVYACEVTHQGLSSPVTKSFNRGEC
notes: DVD-Ig; N-term VD AB071 (VEGF), C-term VD AB012 (HGF); HC linker long, LC linker short; vectors V1/V2
On to B13, for which the results for the EC50 in the experiment with HGF-His tag and in the experiment with VEGF 1-165 aa were 4.71 nM and 13.8 nM, respectively.

B14: DVD662 (bispecific antibody, human IgG1, kappa)
heavy: not shown
light: DIQMTQSPSSLSASVGDRVTITCRASQDVSTAVAWYQQKPGKAPKLLIYSASFLYSGVPSRFSGSGSGTDFTLTISSLQPEDFATYYCQQSYTTPPTFGQGTKVEIKRTVAAPDIQMTQSPSSLSASVGDRVTITCKASENVVSYVSWYQQKPGKAPKLLIYGASNRNTGVPSRFSGSGSGTDFTLTISSLQPEDFATYYCGQSYNYPYTFGQGTKLEIKRTVAAPSVFIFPPSDEQLKSGTASVVCLLNNFYPREAKVQWKVDNALQSGNSQESVTEQDSKDSTYSLSSTLTLSKADYEKHKVYACEVTHQGLSSPVTKSFNRGEC
notes: as for B2
For the molecule B14, the values for the EC50 in the experiment with HGF-His tag and in the experiment with VEGF 1-165 aa were 214 nM and 70.2 nM, respectively.

B15: DVD674 (bispecific antibody, human IgG1, kappa)
heavy: not shown
light: B14 light
notes: as for B3
On to B15, for which the EC50 was 17.6 nM with HGF-His tag and 10.6 nM in the experiment with VEGF 1-165 aa.
